Source: patent US5574007

Assays:
thrombin [1] = biological target: thrombin
protein C [2] = biological target: protein C
thrombin [3] = biological target: thrombin; remark: listed apart in the source
protein C [4] = biological target: protein C; remark: listed apart in the source

Row | amount of activated protein C formed, 30 min after the polypeptide addition (Example 5) (% larger than with E456Glu) (thrombin [1]) | amount of activated protein C formed, 30 min after the polypeptide addition (Example 5) (% larger than with E456Glu) (protein C [2]) | production of activated protein C (thrombin [3]) [pmol] | production of activated protein C (protein C [4]) [pmol] | Binder
1 | 80 | 80 |  |  | polypeptide E456GlaAsp (receptor, gamma-carboxyglutamic acid (Gla) in place of the Glu inserted before Asp367 (third residue of the purified polypeptide, where Edman degradation detected no amino acid; Gla confirmed by amino acid analysis)) PVEDPCFRANCEYQCQPLNQTSYLCVCAEGFAPIPHEPHRCQMFCNQTACPADCDPNTQASCECPEGYILDDGFICTDIDECENGGFCSGVCHNLPGTFECICGPDSALVRHIGTDC
2 |  |  | 1.7 | 1.7 | polypeptide E45 (receptor) DPCFRANCEYQCQPLNQTSYLCVCAEGFAPIPHEPHRCQMFCNQTACPADCDPNTQASCECPEGYILDDGFICTDI
